Test results taken from PMC12148503, “Molecular Basis of Interchain Disulfide Bond Formation in BMP-9 and BMP-10” (Journal of molecular biology, 2025).

T1: Pro-(X)-BMP-10 S385G, O95393
T1 chain: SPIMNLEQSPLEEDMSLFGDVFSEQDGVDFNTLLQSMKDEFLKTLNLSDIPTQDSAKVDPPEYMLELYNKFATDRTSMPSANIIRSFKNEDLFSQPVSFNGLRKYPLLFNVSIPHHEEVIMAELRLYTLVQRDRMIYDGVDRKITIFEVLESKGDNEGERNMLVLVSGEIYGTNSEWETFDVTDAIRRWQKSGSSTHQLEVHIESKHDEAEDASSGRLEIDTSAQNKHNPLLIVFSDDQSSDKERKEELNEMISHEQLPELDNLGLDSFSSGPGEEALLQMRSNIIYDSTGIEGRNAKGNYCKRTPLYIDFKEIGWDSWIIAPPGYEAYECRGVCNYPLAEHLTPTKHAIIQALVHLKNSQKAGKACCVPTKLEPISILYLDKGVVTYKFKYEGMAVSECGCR

T2: Pro-(X)-BMP-10 S385G, R353K, O95393
T2 chain: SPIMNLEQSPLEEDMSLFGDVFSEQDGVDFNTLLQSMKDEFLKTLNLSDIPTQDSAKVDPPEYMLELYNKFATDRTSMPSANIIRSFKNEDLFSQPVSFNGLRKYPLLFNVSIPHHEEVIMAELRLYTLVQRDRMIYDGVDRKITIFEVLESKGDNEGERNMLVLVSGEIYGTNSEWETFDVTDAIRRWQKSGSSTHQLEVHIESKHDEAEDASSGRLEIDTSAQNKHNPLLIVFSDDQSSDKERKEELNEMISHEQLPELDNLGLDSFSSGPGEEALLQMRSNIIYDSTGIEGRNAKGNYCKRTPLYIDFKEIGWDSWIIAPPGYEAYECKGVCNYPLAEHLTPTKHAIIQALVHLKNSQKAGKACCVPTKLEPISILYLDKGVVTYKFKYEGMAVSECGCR


Molecular target: T1, Pro-(X)-BMP-10 S385G, O95393
Assay: SDS-PAGE densitometry
Details: chain shown with the change; IMAC column purified Pro-BMP-10

Row | Binder | other: disulfide-linked dimer over monomer ratio
1 | Pro-(X)-BMP-10, O95393 S385G (protein) SPIMNLEQSPLEEDMSLFGDVFSEQDGVDFNTLLQSMKDEFLKTLNLSDIPTQDSAKVDPPEYMLELYNKFATDRTSMPSANIIRSFKNEDLFSQPVSFNGLRKYPLLFNVSIPHHEEVIMAELRLYTLVQRDRMIYDGVDRKITIFEVLESKGDNEGERNMLVLVSGEIYGTNSEWETFDVTDAIRRWQKSGSSTHQLEVHIESKHDEAEDASSGRLEIDTSAQNKHNPLLIVFSDDQSSDKERKEELNEMISHEQLPELDNLGLDSFSSGPGEEALLQMRSNIIYDSTGIEGRNAKGNYCKRTPLYIDFKEIGWDSWIIAPPGYEAYECRGVCNYPLAEHLTPTKHAIIQALVHLKNSQKAGKACCVPTKLEPISILYLDKGVVTYKFKYEGMAVSECGCR | 0.42

Molecular target: T2, Pro-(X)-BMP-10 S385G, R353K, O95393
Assay: SDS-PAGE densitometry
Details: chain shown with the change; IMAC column purified Pro-BMP-10

Row | Binder | other: disulfide-linked dimer over monomer ratio
2 | Pro-(X)-BMP-10, O95393 S385G; R353K (protein) SPIMNLEQSPLEEDMSLFGDVFSEQDGVDFNTLLQSMKDEFLKTLNLSDIPTQDSAKVDPPEYMLELYNKFATDRTSMPSANIIRSFKNEDLFSQPVSFNGLRKYPLLFNVSIPHHEEVIMAELRLYTLVQRDRMIYDGVDRKITIFEVLESKGDNEGERNMLVLVSGEIYGTNSEWETFDVTDAIRRWQKSGSSTHQLEVHIESKHDEAEDASSGRLEIDTSAQNKHNPLLIVFSDDQSSDKERKEELNEMISHEQLPELDNLGLDSFSSGPGEEALLQMRSNIIYDSTGIEGRNAKGNYCKRTPLYIDFKEIGWDSWIIAPPGYEAYECKGVCNYPLAEHLTPTKHAIIQALVHLKNSQKAGKACCVPTKLEPISILYLDKGVVTYKFKYEGMAVSECGCR | 0.41

Molecular target: the molecule itself
Assay: non-reducing SDS-PAGE with densitometry; IMAC-purified pro-proteins from expi293 conditioned medium, non-reduced against reduced; bands of disulfide-linked dimer and monomer
Details: not given

Row | Binder | binding result
3 | Pro-(fr)-TGF-β2 (natural protein, human, UniProt P61812-1 19-414, looked up, Human proTGF-β2 residues 19-414; Behind the mouse Ig signal peptide and the 8xHis tag, no processing site after the tag; Furin processing incomplete; also called Pro-TGF-β2; source: expi293 (suspension HEK293), secreted; purified from conditioned medium by the histidine tag (IMAC); not shown: 8xHis, N-terminal, kept) LSLSTSSTLDMDQFMRKRIEAIRGQILSKLKLTSPPEDYPEPEEVPPEVISIYNSTRDLLQEKASRRAAACERERSDEEYYAKEVYKIDMPPFFPSENAIPPTFYRPYFRIVRFDVSAMEKNASNLVKAEFRVFRLQNPKARVAEQRIELYQILKSKDLTSPTQRYIDSKVVKTRAEGEWLSFDVTDAVHEWLHHKDRNLGFKISLHCPCCTFVPSNNYIIPNKSEELEARFAGIDGTSTYTSGDQKTIKSTRKKNSGKTPHLLLMLLPSYRLESQQTNRRKKRALDAAYCFRNVQDNCCLRPLYIDFKRDLGWKWIHEPKGYNANFCAGACPYLWSSDTQHSRVLSLYNTINPEASASPCCVSQDLEPLTILYYIGKTPKIEQLSNMIVKSCKCS | binds
4 | Pro-(fr)-Act-A (natural protein, human, UniProt P08476 27-426, looked up, Human proINHBA residues 27-426; The results call it N-terminally histidine-tagged and purified by that tag; the methods say 'with no tag or processing site'; Furin processing incomplete; also called Pro-Activin-A; Pro-Act-A; source: expi293 (suspension HEK293), secreted; purified from conditioned medium by the histidine tag (IMAC); not shown: His tag, N-terminal, kept) EGHSAAPDCPSCALAALPKDVPNSQPEMVEAVKKHILNMLHLKKRPDVTQPVPKAALLNAIRKLHVGKVGENGYVEIEDDIGRRAEMNELMEQTSEIITFAESGTARKTLHFEISKEGSDLSVVERAEVWLFLKVPKANRTRTKVTIRLFQQQKHPQGSLDTGEEAEEVGLKGERSELLLSEKVVDARKSTWHVFPVSSSIQRLLDQGKSSLDVRIACEQCQESGASLVLLGKKKKKEEEGEGKKKGGGEGGAGADEEKEQSHRPFLMLQARQSEDHPHRRRRRGLECDGKVNICCKKQFFVSFKDIGWNDWIIAPSGYHANYCEGECPSHIAGTSGSSLSFHSTVINHYRMRGHSPFANLKSCCVPTKLRPMSMLYYDDGQNIIKKDIQNMIVEECGCS | binds
5 | Pro-(fr)-BMP-9 (natural protein, human, UniProt Q9UK05 23-429, looked up, Human proBMP9 residues 23-429 with the natural furin site; Partially processed by furin: the sample holds unprocessed pro-protein, prodomain and growth factor (12 and 24 kDa); also called Pro-BMP-9 with unmodified furin processing site; wild-type BMP-9; source: expi293 (suspension HEK293), secreted; purified from conditioned medium by IMAC; not shown: 8xHis, N-terminal, kept) KPLQSWGRGSAGGNAHSPLGVPGGGLPEHTFNLKMFLENVKVDFLRSLNLSGVPSQDKTRVEPPQYMIDLYNRYTSDKSTTPASNIVRSFSMEDAISITATEDFPFQKHILLFNISIPRHEQITRAELRLYVSCQNHVDPSHDLKGSVVIYDVLDGTDAWDSATETKTFLVSQDIQDEGWETLEVSSAVKRWVRSDSTKSKNKLEVTVESHRKGCDTLDISVPPGSRNLPFFVVFSNDHSSGTKETRLELREMISHEQESVLKKLSKDGSTEAGESSHEEDTDGHVAAGSTLARRKRSSGAGSHCQKTSLRVNFEDIGWDSWIIAPKEYEAYECKGGCFFPLADDVTPTKHAIVQTLVHLKFPTKVGKACCVPTKLSPISVLYKDDMGVPTLKYHYEGMSVAECGCR | binds
6 | Pro-(fr)-BMP-10 (natural protein, human, UniProt O95393 22-424, looked up, Human proBMP10 residues 22-424 with the natural furin site; Partially processed by furin: the sample holds unprocessed pro-protein, prodomain and growth factor (12 and 24 kDa); also called Pro-BMP-10 with unmodified furin processing site; wild-type BMP-10; source: expi293 (suspension HEK293), secreted; purified from conditioned medium by IMAC; not shown: 8xHis, N-terminal, kept) SPIMNLEQSPLEEDMSLFGDVFSEQDGVDFNTLLQSMKDEFLKTLNLSDIPTQDSAKVDPPEYMLELYNKFATDRTSMPSANIIRSFKNEDLFSQPVSFNGLRKYPLLFNVSIPHHEEVIMAELRLYTLVQRDRMIYDGVDRKITIFEVLESKGDNEGERNMLVLVSGEIYGTNSEWETFDVTDAIRRWQKSGSSTHQLEVHIESKHDEAEDASSGRLEIDTSAQNKHNPLLIVFSDDQSSDKERKEELNEMISHEQLPELDNLGLDSFSSGPGEEALLQMRSNIIYDSTARIRRNAKGNYCKRTPLYIDFKEIGWDSWIIAPPGYEAYECRGVCNYPLAEHLTPTKHAIIQALVHLKNSQKASKACCVPTKLEPISILYLDKGVVTYKFKYEGMAVSECGCR | binds
